B1: Floral homeotic protein … (Arabidopsis thaliana (Mouse-ear cress)), P48007 (parent)
chain: MGRGKIEIKRIENANNRVVTFSKRRNGLVKKAKEITVLCDAKVALIIFASNGKMIDYCCPSMDLGAMLDQYQKLSGKKLWDAKHENLSNEIDRIKKENDSLQLELRHLKGEDIQSLNLKNLMAVEHAIEHGLDKVRDHQMEILISKRRNEKMMAEEQRQLTFQLQQQEMAIASNARGMMMRDHDGQFGYRVQPIQPNLQEKIMSLVID
B2: Developmental protein … 3 (Arabidopsis thaliana (Mouse-ear cress)), O22456 (parent)
chain: MGRGRVELKRIENKINRQVTFAKRRNGLLKKAYELSVLCDAEVALIIFSNRGKLYEFCSSSSMLRTLERYQKCNYGAPEPNVPSREALAVELSSQQEYLKLKERYDALQRTQRNLLGEDLGPLSTKELESLERQLDSSLKQIRALRTQFMLDQLNDLQSKERMLTETNKTLRLRLADGYQMPLQLNPNQEEVDHYGRHHHQQQQHSQAFFQPLECEPILQIGYQGQQDGMGAGPSVNNYMLGWLPYDTNSI
partner: B1 chain
B3: Floral homeotic protein … (Arabidopsis thaliana (Mouse-ear cress)), P48007 (parent)
chain: B1 chain
partner: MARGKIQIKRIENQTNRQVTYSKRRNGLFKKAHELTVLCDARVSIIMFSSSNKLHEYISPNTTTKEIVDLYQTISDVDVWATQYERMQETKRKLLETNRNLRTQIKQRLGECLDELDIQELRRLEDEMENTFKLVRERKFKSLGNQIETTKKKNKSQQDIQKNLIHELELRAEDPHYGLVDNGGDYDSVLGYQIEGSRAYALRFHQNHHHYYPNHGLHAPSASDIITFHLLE

Variants of: B1
Conditions: with sep3_arath SEP3, O22456

| Variant | effect of a mutation on the interaction |
| --- | --- |
| L87P | decreasing interaction |
| Q102P | decreasing interaction |
| L103P | decreasing interaction |
| G110P | decreasing interaction |
| L116P | decreasing interaction |
| G131P | decreasing interaction |
| L132P | decreasing interaction |
| I142P | decreasing interaction |
| S145P | decreasing interaction |
| N149P | increasing interaction |
| M153P | decreasing interaction |
| A154P | decreasing interaction |
| L160P | increasing interaction |
| Q167P | increasing interaction |
| G177P | increasing interaction |

Variants of: B1
Conditions: with sep3_arath SEP3, O22456
Remark: another data set of the same source

| Variant | effect of a mutation on the interaction |
| --- | --- |
| N89S;M152V | decreasing interaction |
| D99G;Q199G | decreasing interaction |
| L105P;D112A;E125G;V206A | decreasing interaction |
| D112G;R176G | decreasing interaction |
| S115F;K119I;N120I | decreasing interaction |
| L116P;M152T | decreasing interaction |
| L118P;N149D;L160P | decreasing interaction |
| L121P | decreasing interaction |
| M122K;E141K;M178V | decreasing interaction |
| V124D | decreasing interaction |
| E125G | decreasing interaction |
| A127P | decreasing interaction |
| I128F | decreasing interaction |
| I128V | decreasing interaction |
| E129D | decreasing interaction |
| E129K;L132P | decreasing interaction |
| E141R;P193L | decreasing interaction |
| I142F | decreasing interaction |
| L143P | decreasing interaction |
| K151E | decreasing interaction |
| A154P;Q157E;F162L | decreasing interaction |
| R158Q;E168V | decreasing interaction |
| F162L;M203T | decreasing interaction |
| L164Q | decreasing interaction |
| P193L | decreasing interaction |

Variants of: B2
Conditions: with pist_arath PI, P48007

| Variant | effect of a mutation on the interaction |
| --- | --- |
| R146E | decreasing interaction |

Variants of: B3
Conditions: with ap3_arath AP3, P35632

| Variant | effect of a mutation on the interaction |
| --- | --- |
| L87P | decreasing interaction |
| I91T | decreasing interaction |
| I94T | decreasing interaction |
| N98D | decreasing interaction |
| L101A | decreasing interaction |
| Q102P | decreasing interaction |
| L103P | decreasing interaction |
| L105H | decreasing interaction |
| L108S | decreasing interaction |
| G110A | decreasing interaction |
| G110P | decreasing interaction |
| L116P | decreasing interaction |
| L116R | decreasing interaction |
| L121A | decreasing interaction |
| L121P | decreasing interaction |
| V124D | decreasing interaction |

| Variant | effect of a mutation on the interaction |
| --- | --- |
| A127P | decreasing interaction |
| I128T | decreasing interaction |
| G131P | decreasing interaction |
| G131V | decreasing interaction |
| L132P | decreasing interaction |
| V135A | decreasing interaction |
| I142P | decreasing interaction |
| L143P | decreasing interaction |
| S145P | decreasing interaction |
| N149P | increasing interaction |
| M153P | decreasing interaction |
| A154P | decreasing interaction |
| L160P | increasing interaction |
| Q167P | increasing interaction |
| G177P | increasing interaction |

— IntAct's records for PubMed 15604664
